# T1: Rrp47 ΔC (Saccharomyces cerevisiae, UniProt P38801 1-120, del121-184)
# T1 sequence: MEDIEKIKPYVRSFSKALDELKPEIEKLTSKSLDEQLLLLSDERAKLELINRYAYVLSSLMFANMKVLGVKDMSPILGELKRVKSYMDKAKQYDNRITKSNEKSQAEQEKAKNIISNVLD
# T2: Rrp47 (Saccharomyces cerevisiae, UniProt P38801 1-184)
# T2 sequence: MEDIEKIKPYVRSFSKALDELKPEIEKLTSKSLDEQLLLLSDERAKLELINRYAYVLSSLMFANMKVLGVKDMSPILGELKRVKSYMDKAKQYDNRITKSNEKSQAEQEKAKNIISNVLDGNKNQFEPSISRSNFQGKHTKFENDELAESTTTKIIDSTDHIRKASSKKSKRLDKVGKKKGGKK
# B1: SL-AU RNA (structured_RNA)
# RNA: GGGUUUCCUUCUCAAACAUUCUGUUUGGUAGUGAGUAAUUAAAAAUGAAUU
# Key:
# Rrp47 ΔC = target: T1, Rrp47 ΔC; experiment: filter binding
# Rrp47 = target: T2, Rrp47; experiment: filter binding
binder,measurement,setting,value
B1,binding result,Rrp47 ΔC,no binding
same,Kd,Rrp47,~1000 nM

# From PMC3039359
